In this experiment the target is GTP. Put plainly: GTP pull-down, quantified blot. The settings on record: + Mg2+; co-expressed with HA-RagC S75N; read off a plot.

RagB^long (from UniProt Q5VZM2) Q127L: the response (relative to RagBlong Q127L (set to 1)) was determined as 1.

As for “RagB^long (from UniProt Q5VZM2) Q127L; D96A”, the response (relative to RagBlong Q127L (set to 1)) worked out at 0.9.

“RagB^long (from UniProt Q5VZM2) Q127L; L94A”: the response (relative to RagBlong Q127L (set to 1)) is 1.8.

Source of the values: paper PMC9481464.
